Assay in all cases: purified protein
What all share (conditions): 25°C, 50 mM Tris-HCl pH 8.0, 10 mM MgCl2

Data set [1] concerns C[N+]1(C)CCC[C@@H]1C(=O)[O-].
Data set [2] has as its system C[N+]1(C)CCC[C@@H]1C(=O)[O-]. It counts as biochemical, Cereibacter sphaeroides.
The test system of data set [3] is C[N+]1(C)C[C@H](O)C[C@H]1C(=O)[O-].

The term Km denotes the substrate concentration at which the rate is half of its maximum. As a reminder, the kcat is the maximal rate divided by the concentration of active sites. The term kcat/Km denotes the turnover number divided by the Michaelis constant. “pdHpbD (Paracoccus denitrificans PD1222)”: in data set [1], the Km is reported as 7.3 ± 3 mM, the kcat was determined as 28 ± 6 s⁻¹ and the kcat/Km was 3800 M⁻¹ s⁻¹.
rsHpbD (Cereibacter sphaeroides 2.4.1): in data set [2], the Km is on record as 11 ± 4 mM, the kcat was determined as 4.3 ± 0.6 s⁻¹ and the catalytic efficiency (kcat/Km) turned out to be 390 M⁻¹ s⁻¹. Moreover, in data set [3], the Km amounted to 16 ± 7 mM, the kcat was 70 ± 7 s⁻¹ and the kcat/Km turned out to be 4300 M⁻¹ s⁻¹.

The values above are taken from publication PMC3950512.
